Test results: patent publication US20220033505A1

How the values were obtained:
[1] = target: CD3 on human T cells (Jurkat cells, primary human T cells) (human) (UniProt P07766); test: flow cytometry; positive control scFv on human T cells, anti-His Alexa-647
[2] = target: CD3 on human T cells (Jurkat cells, primary human T cells) (human) (UniProt P07766); test: flow cytometry; 10 nM antibody on Jurkat cells (No Ab background 2075.61)

Sequence of CD3 on human T cells (Jurkat cells, primary human T cells) (human) (P07766 23-207): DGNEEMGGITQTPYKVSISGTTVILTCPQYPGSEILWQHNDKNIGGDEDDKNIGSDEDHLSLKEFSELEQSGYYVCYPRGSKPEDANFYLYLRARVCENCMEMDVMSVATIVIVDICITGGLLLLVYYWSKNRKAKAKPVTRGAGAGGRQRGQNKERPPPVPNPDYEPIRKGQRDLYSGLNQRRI

Substance | MFI (n = 2) [1] | MFI (arbitrary units) (arbitrary units) [2]
CD3W36 (anti-CD3 antibody SP34 formatted as LH-scFv, positive control) | 99500 | –
UCHT1 (anti-CD3 clone, positive control) (antibody) | – | 89200
